According to the supplement of paper PMC6755084:

B1: F1*; the commonest letter at each place (parent)
chain: GAGACCGCAACTGAAAAGTTGTTATCACTTGTCGTAAGACACTTTGGATGGGTTGAAGTTCTGCACGTAGAAGCAAAAGGC

Variants of: B1
Experiment: fraction ligated after 30 min (ligated reads / total reads); higher = more ligase activity
Settings: with F1*sub RNA substrate (template-directed ligation), 42 °C
Procedure, shortened: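 Templates from an oligo pool were PCR-amplified, transcribed with T7 and gel-purified to give the ribozyme variants. Ligated and unligated products were separated on gel, reverse transcribed using barcoded primers, and read on a MiSeq. A quality filter of ≥20 was applied to core bases. Fraction ligated was taken as ligated reads as a share of all reads per variant.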

Row | Variant | fraction ligated
1 | C33G A39T | 0.851
2 | C33G A39C | 0.833
3 | C33G A39G | 0.836
4 | T32G A56C | 0.743
5 | T32G A56T | 0.785
6 | T32G A56G | 0.799
7 | T32C A57T | 0.775
8 | T32C A57G | 0.781
9 | T32C A57C | 0.76
10 | T32A T35A | 0.855
11 | T32A T35G | 0.812
12 | T32A T35C | 0.829
13 | T32G A57T | 0.814
14 | T32G A57G | 0.844
15 | T32G A57C | 0.82
16 | C33G A57T | 0.836
17 | C33G A57G | 0.881
18 | C33G A57C | 0.847
19 | T32C G55T | 0.75
20 | T32C G55C | 0.664
21 | T32C G55A | 0.771
22 | T32G G34C | 0.726
23 | T32G G34T | 0.793
24 | T32G G34A | 0.83

Row | Variant | fraction ligated
25 | C33A A39T | 0.852
26 | C33A A39C | 0.792
27 | C33A A39G | 0.84
28 | T32C G50T | 0.273
29 | T32C G50C | 0.0903
30 | T32C G50A | 0.216
31 | C33G C40T | 0.825
32 | C33G C40G | 0.826
33 | C33G C40A | 0.819
34 | T32A T44A | 0.819
35 | T32A T44C | 0.82
36 | T32A T44G | 0.814
37 | T32G C33G | 0.828
38 | T32G C33T | 0.856
39 | T32G C33A | 0.843
40 | G31T C42A | 0.809
41 | G31T C42G | 0.809
42 | G31T C42T | 0.822
43 | T32G G38A | 0.822
44 | T32G G38C | 0.798
45 | T32G G38T | 0.799
46 | C33A A56C | 0.742
47 | C33A A56T | 0.837
48 | C33A A56G | 0.812

Row | Variant | fraction ligated
49 | T32C A37G | 0.815
50 | T32C A37C | 0.79
51 | T32C A37T | 0.78
52 | T32G A37G | 0.842
53 | T32G A37C | 0.815
54 | T32G A37T | 0.825
55 | C33G G46C | 0.779
56 | C33G G46T | 0.811
57 | C33G G46A | 0.811
58 | T32A A36T | 0.852
59 | T32A A36C | 0.815
60 | T32A A36G | 0.794
61 | T32A A41G | 0.808
62 | T32A A41C | 0.8
63 | T32A A41T | 0.825
64 | T32A C40A | 0.834
65 | T32A C40G | 0.834
66 | T32A C40T | 0.806
67 | T32G A39T | 0.862
68 | T32G A39C | 0.855
69 | T32G A39G | 0.819
70 | G31T T49C | 0.0332
71 | G31T T49G | 0.19
72 | G31T T49A | 0.146

Row | Variant | fraction ligated
73 | C33A A48C | 0.784
74 | C33A A48G | 0.79
75 | C33A A48T | 0.0887
76 | T32A C42G | 0.861
77 | T32A C42A | 0.843
78 | T32A C42T | 0.845
79 | T32C T49G | 0.647
80 | T32C T49A | 0.512
81 | T32C T49C | 0.193
82 | C33A T43C | 0.834
83 | C33A T43A | 0.83
84 | C33A T43G | 0.799
85 | T32C T43C | 0.782
86 | T32C T43G | 0.729
87 | T32C T43A | 0.779
88 | G31T T43G | 0.76
89 | G31T T43A | 0.778
90 | G31T T43C | 0.78
91 | T32A G50T | 0.454
92 | T32A G50A | 0.232
93 | T32A G50C | 0.0632
94 | T32G G46A | 0.782
95 | T32G G46C | 0.716
96 | T32G G46T | 0.647

Row | Variant | fraction ligated
97 | T32C A56T | 0.766
98 | T32C A56C | 0.727
99 | T32C A56G | 0.738
100 | T32C A39T | 0.778
101 | T32C A39C | 0.772
102 | T32C A39G | 0.852
103 | T32A G38C | 0.82
104 | T32A G38T | 0.825
105 | T32A G38A | 0.861
106 | T32G T49G | 0.669
107 | T32G T49A | 0.56
108 | T32G T49C | 0.246
109 | C33A T44A | 0.805
110 | C33A T44G | 0.821
111 | C33A T44C | 0.84
112 | C33A | 0.869
113 | C33G | 0.831
114 | T32A G46T | 0.787
115 | T32A G46A | 0.81
116 | T32A G46C | 0.778
117 | C33G G38A | 0.847
118 | C33G G38T | 0.837
119 | C33G G38C | 0.829
120 | C33A A41G | 0.823

Row | Variant | fraction ligated
121 | C33A A41C | 0.818
122 | C33A A41T | 0.839
123 | C33A T45C | 0.53
124 | C33A T45G | 0.0419
125 | C33A T45A | 0.803
126 | T32G G50C | 0.0952
127 | T32G G50T | 0.384
128 | T32G G50A | 0.179
129 | G31T T44C | 0.782
130 | G31T T44G | 0.764
131 | G31T T44A | 0.768
132 | T32A G47A | 0.597
133 | T32A G47T | 0.104
134 | T32A G47C | 0.102
135 | T32G A41T | 0.826
136 | T32G A41C | 0.794
137 | T32G A41G | 0.754
138 | T32A A37T | 0.82
139 | T32A A37C | 0.849
140 | T32A A37G | 0.838
141 | T32A C33A | 0.811
142 | T32A C33G | 0.823
143 | T32A C33T | 0.847
144 | T32A G34T | 0.823

Row | Variant | fraction ligated
145 | T32A G34C | 0.809
146 | T32A G34A | 0.809
147 | G31T G38C | 0.78
148 | G31T G38A | 0.802
149 | G31T G38T | 0.801
150 | C33A A37T | 0.849
151 | C33A A37G | 0.872
152 | C33A A37C | 0.859
153 | G31T G55A | 0.813
154 | G31T G55C | 0.176
155 | G31T G55T | 0.759
156 | T32A T45A | 0.763
157 | T32A T45C | 0.358
158 | T32A T45G | 0.0954
159 | C33A G55C | 0.77
160 | C33A G55A | 0.84
161 | C33A G55T | 0.809
162 | T32C A48T | 0.114
163 | T32C A48G | 0.75
164 | T32C A48C | 0.369
165 | T32C T44C | 0.756
166 | T32C T44A | 0.751
167 | T32C T44G | 0.793
